{"source": "paper PMC5452045", "key": {"[1]": {"target": "His‐GFP‐Mis18β (human) (UniProt O43482)", "sequence (O43482 whole entry)": "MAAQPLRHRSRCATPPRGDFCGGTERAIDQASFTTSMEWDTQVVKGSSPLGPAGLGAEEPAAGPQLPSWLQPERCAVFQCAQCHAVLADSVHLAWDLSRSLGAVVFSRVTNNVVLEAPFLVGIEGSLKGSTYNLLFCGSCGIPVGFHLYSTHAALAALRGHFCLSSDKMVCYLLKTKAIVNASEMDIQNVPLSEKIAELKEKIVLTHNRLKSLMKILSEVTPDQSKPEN", "assay": "SEC-MALS; 100 μl of about 1 mg/ml on Superdex 200 10/300 GL; 50 mM HEPES pH 8.0, 150 mM NaCl, 1 mM TCEP; 22°C; subunit numbers from measured against calculated MW"}, "[2]": {"target": "His‐Mis18β (human) (UniProt O43482)", "sequence (O43482 whole entry)": "as above", "assay": "SEC-MALS; 100 μl of about 1 mg/ml on Superdex 200 10/300 GL; 50 mM HEPES pH 8.0, 150 mM NaCl, 1 mM TCEP; 22°C; subunit numbers from measured against calculated MW"}}}
{"substance": "His‐Mis18α (from UniProt Q9NYP9 1-233) (natural protein)", "values": [{"measurement": "stoichiometry N (His-Mis18α per His-GFP-Mis18β (4:2))", "setting": "[1]", "value": 2}]}
{"substance": "His‐GFP‐Mis18α (from UniProt Q9NYP9 1-233) (natural protein)", "values": [{"measurement": "stoichiometry N (His-GFP-Mis18α per His-Mis18β (4:2))", "setting": "[2]", "value": 2}]}
